B1: Flag-tagged wild type LRRK2 (leucine-rich repeat kinase 2) [human] / Full length V5-tagged FADD [not stated] (parent complex)
chain 1: MASGSCQGCEEDEETLKKLIVRLNNVQEGKQIETLVQILEDLLVFTYSERASKLFQGKNIHVPLLIVLDSYMRVASVQQVGWSLLCKLIEVCPGTMQSLMGPQDVGNDWEVLGVHQLILKMLTVHNASVNLSVIGLKTLDLLLTSGKITLLILDEESDIFMLIFDAMHSFPANDEVQKLGCKALHVLFERVSEEQLTEFVENKDYMILLSALTNFKDEEEIVLHVLHCLHSLAIPCNNVEVLMSGNVRCYNIVVEAMKAFPMSERIQEVSCCLLHRLTLGNFFNILVLNEVHEFVVKAVQQYPENAALQISALSCLALLTETIFLNQDLEEKNENQENDDEGEEDKLFWLEACYKALTWHRKNKHVQEAACWALNNLLMYQNSLHEKIGDEDGHFPAHREVMLSMLMHSSSKEVFQASANALSTLLEQNVNFRKILLSKGIHLNVLELMQKHIHSPEVAESGCKMLNHLFEGSNTSLDIMAAVVPKILTVMKRHETSLPVQLEALRAILHFIVPGMPEESREDTEFHHKLNMVKKQCFKNDIHKLVLAALNRFIGNPGIQKCGLKVISSIVHFPDALEMLSLEGAMDSVLHTLQMYPDDQEIQCLGLSLIGYLITKKNVFIGTGHLLAKILVSSLYRFKDVAEIQTKGFQTILAILKLSASFSKLLVHHSFDLVIFHQMSSNIMEQKDQQFLNLCCKCFAKVAMDDYLKNVMLERACDQNNSIMVECLLLLGADANQAKEGSSLICQVCEKESSPKLVELLLNSGSREQDVRKALTISIGKGDSQIISLLLRRLALDVANNSICLGGFCIGKVEPSWLGPLFPDKTSNLRKQTNIASTLARMVIRYQMKSAVEEGTASGSDGNFSEDVLSKFDEWTFIPDSSMDSVFAQSDDLDSEGSEGSFLVKKKSNSISVGEFYRDAVLQRCSPNLQRHSNSLGPIFDHEDLLKRKRKILSSDDSLRSSKLQSHMRHSDSISSLASEREYITSLDLSANELRDIDALSQKCCISVHLEHLEKLELHQNALTSFPQQLCETLKSLTHLDLHSNKFTSFPSYLLKMSCIANLDVSRNDIGPSVVLDPTVKCPTLKQFNLSYNQLSFVPENLTDVVEKLEQLILEGNKISGICSPLRLKELKILNLSKNHISSLSENFLEACPKVESFSARMNFLAAMPFLPPSMTILKLSQNKFSCIPEAILNLPHLRSLDMSSNDIQYLPGPAHWKSLNLRELLFSHNQISILDLSEKAYLWSRVEKLHLSHNKLKEIPPEIGCLENLTSLDVSYNLELRSFPNEMGKLSKIWDLPLDELHLNFDFKHIGCKAKDIIRFLQQRLKKAVPYNRMKLMIVGNTGSGKTTLLQQLMKTKKSDLGMQSATVGIDVKDWPIQIRDKRKRDLVLNVWDFAGREEFYSTHPHFMTQRALYLAVYDLSKGQAEVDAMKPWLFNIKARASSSPVILVGTHLDVSDEKQRKACMSKITKELLNKRGFPAIRDYHFVNATEESDALAKLRKTIINESLNFKIRDQLVVGQLIPDCYVELEKIILSERKNVPIEFPVIDRKRLLQLVRENQLQLDENELPHAVHFLNESGVLLHFQDPALQLSDLYFVEPKWLCKIMAQILTVKVEGCPKHPKGIISRRDVEKFLSKKRKFPKNYMSQYFKLLEKFQIALPIGEEYLLVPSSLSDHRPVIELPHCENSEIIIRLYEMPYFPMGFWSRLINRLLEISPYMLSGRERALRPNRMYWRQGIYLNWSPEAYCLVGSEVLDNHPESFLKITVPSCRKGCILLGQVVDHIDSLMEEWFPGLLEIDICGEGETLLKKWALYSFNDGEEHQKILLDDLMKKAEEGDLLVNPDQPRLTIPISQIAPDLILADLPRNIMLNNDELEFEQAPEFLLGDGSFGSVYRAAYEGEEVAVKIFNKHTSLRLLRQELVVLCHLHHPSLISLLAAGIRPRMLVMELASKGSLDRLLQQDKASLTRTLQHRIALHVADGLRYLHSAMIIYRDLKPHNVLLFTLYPNAAIIAKIADYGIAQYCCRMGIKTSEGTPGFRAPEVARGNVIYNQQADVYSFGLLLYDILTTGGRIVEGLKFPNEFDELEIQGKLPDPVKEYGCAPWPMVEKLIKQCLKENPQERPTSAQVFDILNSAELVCLTRRILLPKNVIVECMVATHHNSRNASIWLGCGHTDRGQLSFLDLNTEGYTSEEVADSRILCLALVHLPVEKESWIVSGTQSGTLLVINTEDGKKRHTLEKMTDSVTCLYCNSFSKQSKQKNFLLVGTADGKLAIFEDKTVKLKGAAPLKILNIGNVSTPLMCLSESTNSTERNVMWGGCGTKIFSFSNDFTIQKLIETRTSQLFSYAAFSDSNIITVVVDTALYIAKQNSPVVEVWDKKTEKLCGLIDCVHFLREVMVKENKESKHKMSYSGRVKTLCLQKNTALWIGTGGGHILLLDLSTRRLIRVIYNFCNSVRVMMTAQLGSLKNVMLVLGYNRKNTEGTQKQKEIQSCLTVWDINLPHEVQNLEKHIEVRKELAEKMRRTSVE
chain 2: MDPFLVLLHSVSSSLSSSELTELKFLCLGRVGKRKLERVQSGLDLFSMLLEQNDLEPGHTELLRELLASLRRHDLLRRVDDFEAGAAAGAAPGEEDLCAAFNVICDNVGKDWRRLARQLKVSDTKIDSIEDRYPRNLTERVRESLRIWKNTEKENATVAHLVGALRSCQMNLVADLVQEVQQARDLQNRSGAMSPMSWNSDASTSEAS

Variants of: B1
Assay: ELISA (anti-Flag capture, anti-V5 detection); 15 μg of cell extract loaded in each well; parent: 0.61; read off a plot

| response [anti-V5/Total LRRK2] | Variant |
| --- | --- |
| ~0.91 | chain 1 A211V |
| ~0.75 | chain 1 R1441C |
| ~1.2 | chain 1 K544E |
| ~0.77 | chain 1 I2020T |
| ~1.7 | chain 1 T1410M |
| ~1.2 | chain 1 G2019S |

Variants of: B1
Assay: co-immunoprecipitation (M2-Flag resin), quantified Western blot band intensity; HEK293T cells; Flag-LRRK2 and V5-FADD at a ratio of 4:1; three independent experiments; parent: 1; read off a plot

| response | Variant |
| --- | --- |
| ~1.7 norm. to Flag IP | chain 1 A211V |
| ~1.1 norm. to Flag IP | chain 1 R1441C |
| ~1 norm. to Flag IP | chain 1 K544E |
| ~1.6 norm. to Flag IP | chain 1 I2020T |
| ~2 norm. to Flag IP | chain 1 T1410M |
| ~1.3 norm. to Flag IP | chain 1 G2019S |

Source: publication PMC5104429 (2016)
